# Data: the DeepSol protein solubility set
# Test: soluble on expression in E. coli; label from the status in PepcDB or PDB records
row,Sequence,soluble on expression in E. coli
1,MNRVQSGFRVPARVLNSLAHLQDGLNIFMDPDWRQIRHVDDWALAITMESAELIDSYPWKWWKNVKAQTDMHNVRIEIADILHFSLSGEIQKRTQDEKGADDVALKSLKEMGFFCRPPAHAKSTAASGQRTNGGDGDGDDELLELMFFPLTEVASAVATFRNIIQLASIYRFDLITKGLLLAAQDLDFNLVGYYVAKYTLNQIRQLKGYKEGVYVKVREGVEDNELLHECVQSVSVEDVLNEGTYLKAWEKIACSVFDAFGMPEEERRHAYDWLKSAALDGKG,soluble
2,MKFINIVGTTASGKTTFARQLALKLNLTHIEMDDLFWLDGWQETPDDEFFLKLKNKMDIAKDGWVLDGNYSRTLHLKLDKLDTMIWLDYSFTLNFYRSVKRAISRIITKEPLWENSNNYESFKQSFLSKNSIILWMINHYAKNRKKYLNMMHDPQYRHIQFIRLTSPKQAKVFLDSL,not soluble
3,MKITYIHHSSFLVELEHVSMLFDYYAGQLPEIRKDRPLVVFASHFHGDHFAPVIFDLAKDREDVNYVLSKDISKKKVPDNLIGRVTFVKAGEKLALYTEGRKAGLEIETFKSTDEGVAFWITCEGSTIYHAGDLNNWWWEGEDKAWNHNMAANYAHEMEKMEGRTVDAAFVPLDPRLEQWFYLGMKEFMEKVDAKAVIPMHFWKDYSIIEKMRQHPSSEGWRERLVEIHREGEELAI,not soluble
4,MSKPGRTILASKVAETFNTEIINNVEEYKKTHNGQGPLLVGFLANNDPAAKMYATWTQKTSESMGFRYDLRVIEDKDFLEEAIIQANGDDSVNGIMVYFPVFGNAQDQYLQQVVCKEKDVEGLNHVYYQNLYHNVRYLDKENRLKSILPCTPLAIVKILEFLKIYNNLLPEGNRLYGKKCIVINRSEIVGRPLAALLANDGATVYSVDVNNIQKFTRGESLKLNKHHVEDLGEYSEDLLKKCSLDSDVVITGVPSENYKFPTEYIKEGAVCINFACTKNFSDDVKEKASLYVPMTGKVTIAMLLRNMLRLVRNVELSKEK,soluble
5,MSLTKLLLLQKIKDPDLKQIHRDFPDLELINADEMTNELVDQIEIVYGQFSHLQKGYGFSSWFGKVVPNGKSLKWVQTISAGIDFLPLDQLAKRGIMVSNMSGLHSEAISENVLAYILILNRGLKFALANQAKQSWDFNFPKIKQLQDKKILIFGTGAIGSAIAKILQAFDVEVIGVNRHGKDLKYFDRVITQEQLGDFADADYLISDMPLTTQTRGYFDSDFFSLFKKQPIFINVGRGPSVVEKDLIKALKADILSGAALDVFEHEPLASDSPLWKMENVIVTPHSSALLEHFQRDAYKIFGPNLKSYLANGEGHHHHHH,not soluble
6,MDEMIFDPTMSKKKKKKKKPFMLDEEGDAQTEETQPSETKEVEPEPTEEKDVDADEEDSRKKDASDDLDDLNFFNQKKKKKKTKKIFDIDEAEEAIKDVKIESDAQEPAEPEDDLDIMLGNKKKKKKNVKFPEEDEILEKDEALEDEDSKKDDGISFSSQTAWAGSERDYTYEELLNRVFNIMREKNPDMVAGEKRKFVMKPPQVVRVGTKKTSFVNFTDICKLLHRQPKHLLAFLLAELGTSGSIDGNNQLVIKGRFQQKQIENVLRRYIKEYVTCHTCRSPDTILQKDTRLYFLQCETCHSRCSVASIKTGFQAVTGKRAQLRAKAN,soluble
7,MIQAVFERAEDGELRSAEITGHAESGEYGLDVVCASVSTLAINFINSIEKFAGYEPILELNEDEGGYLMVEIPKDLPSHQREMTQLFFESFFLGMANLSENYSEFVQTRVITEN,soluble
8,MGSDKIHHHHHHMEKLLTIVVPAYNVEKYIKNCLDSFIDLSVLRSLEILIVDDGSTDSTASLAHTYEQKYPYSFKVLSKENGGHGSTINYAIPRATGKYFKVVDGDDWLDKSLLPQFVQLLKHTHSDVISNDFNLVDDKTKKVTKRRKAVSNSYHYNREWGFAEAVMDPLITIHSMTIRTDVLQKNDIRVDEHCFYEDQEYILYPIPYCTSITFSPLPLYQYRLGRSGQSVDIKMMIKRHDQHLKVLDALFEYNNVHGNLQTYKKQYLERGIAEAVDDEYQIFLAKGNDTRNVEQMKKFDEMLREEHPGVYQACSRKSVWMLRKTGFKIFPMAAWVYSRLRGN,not soluble
9,PFSFFHWIFIHPESHTESEISEIITHEETHARQYHSADVLVSEIMCTFCWFNPFVWLMKREVRGNLEYMADHRVLETGHDSKSYQYHLL,not soluble
10,MQCHVKDEVLYIGKKEFEEPIKSEWVLEMQNTEKYKTIGPTFPDGTINWQCPCMAGGSLVAHRCGNFFRELYICMKSDDTRDPSEKCPNQFVNWAACMQNMSDERREQMRKAMTVDTEELKINPK,not soluble
11,MGSDKIHHHHHHMIKNFVLDTNVLLYDPQAIFKFEENNIIIPITVIEEIDRFKKDMNETGRNARQLSRYLDEMRATGSLANGIALETGGTLRVEMYEEKFMKVLPPELREERGDNRILAVALRVKEQDEATPVIFVTKDTNLRIKSDALGLKAEDYESDKVDIEELYPGFTELEVSAEMVDRFHGQGWVDLTGYDLHPNQFVTLRDAANPSHTALGKYRADQKRITPIAKNGKDGVWSIHPRNREQAFAFDALLDDSIKLVTLVGKAGTGKTLLAIAAGLHKTAEENVYNRLLVSRPVFPMGRDLGFLPGDIEEKLTPWMQPIFDNVELLLSGHEAEKRHSKGYKELMAMGIMDIEPLTYIRGRSIPLQFMIVDEAQNLTPHEIKTIITRAGEGTKIVLTGDPYQIDNPYVDASSNGLTYVVERFKGVPIAGHVTMTKGERSELAELAANLL,not soluble
12,MQTGNGEYHMGNTMTKAIYEKFKSATPYGNTVATGAIPTETVDIAVNVGGFKVGDQNYPINPKVTFTNNTGQDIPGGTEFQFDIPVSAPDNAKDQSGGGLQVIASGHTRPNNIGGLDGTMHRVAFTLPAWKALPAGGVYELDMVYYLPISGPANYTVNINNVDYAFKFEQPDLPLADLSSLEHHHHHH,soluble
13,MAAIINQRVEQGESSMGGAKPALLHRITGHVARINDVILLSKDEGVWTASDDRSVRLYLKRDNDQFWPSIHHFMPVAPTSLYYSEETYKLLVGLINGNVYEFSVADDFNSMTESRKWTCHAGPISGLGFALSSELIFSCSRDKSIVWHCSENSNKMGSYLLENSCTAMVIDLPFVFVGDHGGHVTVLRIVDNQPNLVSKLSAHTNAITSLTWDGNKKVLYSGSSDHLIIMWDIGGGRGEAYELNGHNGKVTTLCAAPAAKRLFSADEHGKLMCWDMNCKRVETPEWKTSDCCQKCNQPFFWNLQAMWQRKVVGLRQHHCRTCGSAVCGSCCDNWTTYPPMGYETKIRICNDCNARMKDNPQNFNLTPLAIPHEIHTGITAMHLQETLGLLVTSGQNRVIMIWDVRSVCSAPSGSQ,not soluble
14,MSCIAAIAAAEGTGSRMAYVSLPRRLVTLLMISTVMVSCSAEGLVPPAEVDGTTRVSAIRSSRQQGYSAPSGAVNQVERAGQGADYPSTMSQPMPEPYASQDPLLQSPQAGQGYSTLDSQHQARMAASGHTNMPAQPMQSQTMQSQTMQAQTMQAQTMPGQQLASNQNAEGEGGVNMDSMLGVEPVRGLAEEQDADIAEGASAQPVVDGIGTDNPVAVSPPRRQQGASQSRLIPPPPVGSSSRRQPVEEVAMLMPNDPMAGGPMQSNRSMPPGVMPSSEVACRSELRRLGVAFRDVARIADGPTCGIDYPIELSGLASGVAIRPAVKLNCQVTLAFAKWVKFELVPSSRFRYLSGVGRITPMGGYSCRKMNSRSSNPWSEHARGNAIDIGTITLKNGKEIDVRSKSFFAFREKALLKAVRSDSCKYFSTVLGPGSDPNHWNHFHFDLRTRKSGYRHCD,not soluble
15,MGSDKIHHHHHHMPFDGLLLHKAVRELKELEGEHLRQIYQPTTVDYYFLFRSATVRVCLRPDVSHVAIAEKEEASEKMPSSFTMLLRKELKGAKLLKVEQIGMDRTLRFSFEKFDEIEGIVQKDLYIEIMGIHSNMILVRDRRIIDAHRRIVTKKREILPGREFVIFPSGKVSIFELRELPPESEKTIRNVLLSLLEGFSPVSVEELIHRTGYELDTPWKAVDQRKILEVLEEIKKELELPGVFVYYEASHPVEVSAFRFTMLSLKERYFEKPSEGINEFVRWKEEKSTFENTKNRFIKVVVNRIEDLEDLEEKLSRELSEAEKAERYKKLGDLIVQNLWSIKGKSGEVELTDWETNEKIVVDVGKDPAQTAQKFYNTYKKLQRKKEQVEKRLEEIQREKEYLYQLWQTIEDAEDLETLEEIEEEMREFGLLKERKTKKQKSKKTRFREVYYGGFKILIGRNNKQNDELVRTSSKEDLWFHAHEMPGAHVVVKTEGKKVPQEVVEYAASLAAGYSKGKNSGKVPVDYTFIKYVRKPKGFKPGMVIYKNYKTILVEPRRIEG,not soluble
16,MFKNLIWLKEVDSTQERLKEWNVSYGTALVADRQTKGRGRLGRKWLSQEGGLYFSFLLNPKEFENLLQLPLVLGLSVSEALEEITEIPFSLKWPNDVYFQEKKVSGVLCELSKDKLIVGIGINVNQREIPEEIKDRATTLYEITGKDWDRKEVLLKVLKRISENLKKFKEKSFKEFKGKIESKMLYLGEEVKLLGEGKITGKLVGLSEKGGALILTEEGIKEILSGEFSLRRS,soluble
17,KVKSTFNKYSKVSSSKGMTGAMVAEQLLRSQGIYDVSIQRVSGSLTDNYNPRNKTLNLSDSVYNSTSVAAIGVAAHETGHAIQHAYGYGPLSFRTALFP,not soluble
18,AIAEPGSPAGAGAEAPAFYSERKLSRKQLKKLAKAEREYEEERRKELEAAQAVDTAQKRELARIESILRTHALRMEYVEPDGHCLFRALVRQLRPLIQSGLFDTYFPAADTETRSALLTWSTIPDEMEAVWLLRKTLASFIRRRGTEFFPFIVGELDPQGTLLDASDDPAERVAQYCARLEDGTLWGGQPELQAVALALRCRVFVFADPEILPNGMLVMGADDASTDTGAESVTALRVSFHKQFFSLGEHYHAVVPADDSRGDARDPRISAS,soluble
19,AAGVLKHRRRKEKAQRKLVGMQANLDRLSDLTAELGKQLKPLARQAEAARKAATIQSEVRDARLRIAGYQIHSLASSLKDAQSHHDSIAEKLEEVTEQLEEATGVQLEAEDALGKISPEAEKSQQLWFELSSLAERVSATQRIATDRAKNFSEVRYSGPDPDELAEKAARADAEYAEAEETVDILSERLESIQDNVAELEEQAQRADREHLAQVRAIADRREGIVRLLTLESQQREHIVAAEAELERLREAESDIAAQARSKDAEHKDCQTQAQEARSRIEPLSQSRDAALNESRAADSRLEQLREQQSDIDKSISRLESKIETLESHRMTRNAVKQWEKLQSFYGVDRYIIPQRGMEKAIAAALGPVAEALVGETTTAELQALDIESLARHIVITPGEDHDWRLATDLPHYASWLLDYVELAPEVSSTIVQILADVVLVDSYEHGREVVNHDPRLRAVCVDGTMWGHGWVAVGSAERSAVEIAAEIDQAEKDLEVARLQRVELAGTLNGAHQAADEARVRSAQAQAVCREQEIVVENFSRRVEAVSHEAEARKQELRRHALRVQEAQDRLNQLRQLWEETSDRLSRVEEDNSEEEPSTSERDKAAAALSHMRSMEVEARLSLRTAQDKAEHIRGRGDGLRRQAEYERQARARHDQAVARQRRKAEIASVVAQQCLVVAERVDDALARATQWKENAIAQRGVISARVSAAKDTVSALRTNANRLTEKSHAAELSLGQAQVRLEEAHEKIVEQLGIAISDLMRDYTPHEGFDIGAQRVRLKNAEKDLNALGKVNPLALEEFKALEERYEFLSTQLADVEQARRDLHGVINDVDTKILQ,not soluble
20,SSALPRTLGELQLYRVLQRANLLSYYETFIQQGGDDVQQLCEAGEEEFLEIMALVGMATKPLHVRRLQKALREWATNPGLFSQPVPAVPVSSIPLFKISETAG,soluble
21,MGHEAKHPIIIGITGNIGSGKSTVAALLRSWGYPVLDLDALAARARENKEEELKRLFPEAVVGGRLDRRALARLVFSDPERLKALEAVVHPEVRRLLMEELSRLEAPLVFLEIPLLFEKGWEGRLHGTLLVAAPLEERVRRVMARSGLSREEVLARERAQMPEEEKRKRATWVLENTGSLEDLERALKAVLAELTGGAKEGRG,soluble
